From US20070099822A1, “Regulation of tissue mineralization and phosphate metabolism by asarm peptides” (priority 2003, published 2007)
Entries after “also recorded” stand apart in the source; their conditions may differ.

Columns and labels:
[1] = molecular target: anti-ASARM-peptide polyclonal; test: Competitive ELISA, biotinylated against non-biotinylated ASARM-peptide; assay type: binding, Rabbit; conditions: 0.5 ng/mL biotinylated ASARM-peptide
Excerpt: MEPE ASARM-peptide (phosphorylated and non-phosphorylated) & polyclonal antibodies. The carboxy terminal region of MEPE containing residues 507-525 were synthesized using routine techniques by multiple peptide cloning systems (Multiple Peptide Systems, San Diego, Calif.). For ELISA studies, both phosphorylated and non-phosphorylated peptides were synthesized. The phosphorylated-form of the peptide (NH2—RDDSSESSDSG(Sp)S(Sp)E(Sp)DGD-COOH; SEQ ID NO. 14) was biotinylated using a Pierce EZ-Link Sulfo-NHS-LC-Biotinylation Kit (Pierce & Co, Rockford, Ill.) and the peptide de-salted using an Amersham Biosciences PD-10 Desalting column (Amersham Biosciences, Piscataway, N.J.). […] Rabbit polyclonal antibodies raised against ASARM-peptide NH2-[…]-COOH (SEQ ID NO. 5) were used in these studies and have been previously described (Rowe, et al., Bone 34:303-319, 2004). Pre-immune sera from the same rabbits were used as negative controls.
ELISA Assay. A new enzyme-linked-immunosorbent-assay (ELISA) was designed to specifically quantitate ASARM-peptide(s) in sera from humans and mice. […]

CHO cell tumors = test: Example IV: CHO cell tumors expressing MEPE in athymic nude mice; assay type: in vivo
Method: Six groups of athymic nude mice were injected with the one of the following: normal saline, CHO cells, CHO cells containing an empty vector, CHO cells expressing MEPE (CHO-MEPE), CHO cells expressing PHEX (CHO-PHEX), and CHO cells expressing PHEX and MEPE (CHO-PHEX-MEPE). Tumor size was assessed based on combined tumor weight at nine different time points.

Molecule	KD of quenching in competitive ELISA [1] [ng/mL]	Qmax (quench maximum) [1] [%]	tumor size (combined tumor weight) (CHO cell tumors; CHO cells expressing MEPE vs CHO cells with empty vector, nude mice)	1,25-vitamin D3 serum levels (CHO cell tumors; CHO-MEPE and CHO-PHEX-MEPE groups vs groups not expressing MEPE)	serum phosphate (CHO cell tumors; after thirteen days, CHO-MEPE and CHO-PHEX-MEPE groups)
H-CFSSRRRDDSSESSDSGSSSESDGD-OH [ASARM-peptide]	7.5	98.7			
Hu-MEPE: purified insect expressed full-length recombinant human MEPE (Matrix Extracellular Phosphoglycoprotein) (protein) PTFQPQTEKTKQSCVEEQRQEEKNKDNIGFHHLGKRINQELSSKENIVQERKKDLSLSEASENKGSSKSQNYFTNRQRLNKEYSISNKENTHNGLRMSIYPKSTGNKGFEDGDDAISKLHDQEEYGAALIRNNMQHIMGPVTAIKLLGEENKENTPRNVLNIIPASMNYAKAHSKDKKKPQRDSQAQKSPVKSKSTHRIQHNIDYLKHLSKVKKIPSDFEGSGYTDLQERGDNDISPFSGDGQPFKDIPGKGEATGPDLEGKDIQTGFAGPSEAESTHLDTKKPGYNEIPEREENGGNTIGTRDETAKEADAVDVSLVEGSNDIMGSTNFKELPGREGNRVDAGSQNAHQGKVEFHYPPAPSKEKRKEGSSDAAESTNYNEIPKNGKGSTRKGVDHSNRNQATLNEKQRFPSKGKSQGLPIPSRGLDNEIKNEMDSFNGPSHENIITHGRKYHYVPHRQNNSTRNKGMPQGKGSWGRQPHSNRRFSSRRRDDSSESSDSGSSSESDGD			significantly reduced; also recorded: dramatically reduced size	decrease in serum levels	hypophosphatemia; also recorded: decrease in serum phosphate
